Assay results taken from paper PMC2647517 (Biochemistry, 2008).
Positions count from the first letter of the chain named. Names and notes keep the numbering of the source. Where two headings read alike, the source gives them in different places.

Assays:
[1] = molecular target: the molecule itself; test: SEC
[2] = molecular target: the molecule itself; test: cross-linking
[3] = molecular target: the molecule itself; test: SEC + cross-linking
[4] = molecular target: the molecule itself; test: SEC + cross-linking; remark: listed apart in the source
[5] = molecular target: the molecule itself
[6] = molecular target: the molecule itself; test: SEC; remark: listed apart in the source

B1: Escherichia coli manganese superoxide dismutase, wild type (apoprotein) (enzyme, UniProt P00448 1-206, looked up)
chain: MSYTLPSLPYAYDALEPHFDKQTMEIHHTKHHQTYVNNANAALESLPEFANLPVEELITKLDQLPADKKTVLRNNAGGHANHSLFWKGLKKGTTLQGDLKAAIERDFGSVDNFKAEFEKAAASRFGSGWAWLVLKGDKLAVVSTANQDSPLMGEAISGASGFPIMGLDVWEHAYYLKFQNRRPDYIKEFWNVVNWDEAAARFAAKK
[1]
  stoichiometry N: 2

B2: EC MnSOD Y174C, disulfide form (enzyme, Escherichia coli, UniProt P00448 1-206, looked up)
chain: B1 chain with Y175C
modifications: disulfide between Cys174 of the two subunits
[2]
  stoichiometry N: 2

B3: EC MnSOD (S126C/Y174C), double disulfide form (enzyme, Escherichia coli, UniProt P00448 1-206, looked up)
chain: B1 chain with S127C, Y175C
modifications: disulfides between Cys126 and Cys126 and between Cys174 and Cys174 of the two subunits
[2]
  stoichiometry N: 2

B4: EC MnSOD S126C, disulfide form (enzyme, Escherichia coli, UniProt P00448 1-206, looked up)
chain: B1 chain with S127C
modifications: disulfide between Cys126 of the two subunits
[3]
  stoichiometry N: 2
[4]
  stoichiometry N: 2

B5: EC MnSOD H171A (enzyme, Escherichia coli, UniProt P00448 1-206, looked up)
chain: B1 chain with H172A
[5]
  stoichiometry N: 2

B6: EC MnSOD S126C, free thiol form (enzyme, Escherichia coli, UniProt P00448 1-206, looked up)
chain: B1 chain with S127C
modifications: Cys126 as free thiol (0.99 mol SH/mol protein)
[6]
  stoichiometry N: 2

B7: EC MnSOD E170C, disulfide form (enzyme, Escherichia coli, UniProt P00448 1-206, looked up)
chain: B1 chain with E171C
modifications: disulfide between Cys170 of the two subunits
[2]
  stoichiometry N: 2
